± gives the uncertainty stated by the source.
assay: amyloid nucleation score (Sup35N fusion, yeast selection) (log enrichment); library NNK1; higher = more nucleation; inactive = no reads after selection
How it was run: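 In psi-negative yeast, Sup35N fusions carrying peptides of 20 random codons were induced with 100 μM copper sulfate for 24 hours. The cells then grew 7 days at 30°C on medium lacking adenine and uracil, and plasmid inserts from input and output were Illumina-sequenced, excluding sequences with under 100 input reads. Nucleation score is the DiMSum log enrichment of output over input reads, centred on the mode score of non-aggregating sequences.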

Q: Which amyloid nucleation score does the source give for HSAFSWNYRDSFVEGCSSHG here?
A: 0.018 ± 0.3

Q: For PNVFFFLISMIFSDFLVGSG, which amyloid nucleation score is on record?
A: 0.192 ± 1.2

Q: With VKSQCECHVSSFALFCWARD as the substance, how does the amyloid nucleation score read?
A: 3.85 ± 0.1

Q: With TGFTSLGGYLKVFNIICWIH as the substance, how does the amyloid nucleation score read?
A: 3.39 ± 0.097

Q: Which amyloid nucleation score does the source give for DRVCILEQLDRSRGATVCAR here?
A: 1.24 ± 0.76

Q: For DDKITSLLVMSRDKVKPMSD, which amyloid nucleation score is on record?
A: inactive

Q: Which amyloid nucleation score does the source give for MFKNRGG here?
A: 0.057 ± 0.36

Q: Which amyloid nucleation score does the source give for GWTLPNRRLWHFFMTIT here?
A: 0.654 ± 0.45

Q: For KIKLMF, which amyloid nucleation score is on record?
A: -0.416 ± 1.6

Q: For ATPMFNVPVHRCVKKV, which amyloid nucleation score is on record?
A: -0.206 ± 0.46

Q: Which amyloid nucleation score does the source give for HYVVVKRRPMDMSGLVGWDA here?
A: 0.036 ± 0.43

Q: With NTIEGV as the substance, how does the amyloid nucleation score read?
A: inactive

Q: Which amyloid nucleation score does the source give for YSCPNLIWA here?
A: -0.424 ± 0.38

Q: With WHLSMRLDLPT as the substance, how does the amyloid nucleation score read?
A: 0.363 ± 0.65

Q: Which amyloid nucleation score does the source give for GYFIVALRFSSLVEVNATSC here?
A: 0.658 ± 0.77

Q: With KTFYLWW as the substance, how does the amyloid nucleation score read?
A: 3.04 ± 0.14

Q: For AWVYSYSRSILMWGVTGLWV, which amyloid nucleation score is on record?
A: 0.77 ± 0.61

Q: For TWCCEVNAAVEHG, which amyloid nucleation score is on record?
A: -1.17 ± 1.1

Q: Which amyloid nucleation score does the source give for YPMRTQRVASHMV here?
A: -0.383 ± 0.58

Q: With GRFRLVMVFCAGNGNAGGER as the substance, how does the amyloid nucleation score read?
A: 1.52 ± 0.52

Q: With NSGFRAASS as the substance, how does the amyloid nucleation score read?
A: 2.02 ± 0.55

Q: For GFRFEMSRQIHKWQSSCLLY, which amyloid nucleation score is on record?
A: 0.489 ± 0.6

Q: With RCLMPYNYE as the substance, how does the amyloid nucleation score read?
A: 0.952 ± 0.49

Q: Which amyloid nucleation score does the source give for MGLMIMIFWWEDM here?
A: -0.82 ± 0.91

Q: For NVDFLISQSRIFYIERLSSQ, which amyloid nucleation score is on record?
A: 2.77 ± 0.16

Q: With SNNVFMAVNSSQRIQQFMLA as the substance, how does the amyloid nucleation score read?
A: 1.03 ± 0.14

Q: Which amyloid nucleation score does the source give for YWVCE here?
A: 0.332 ± 0.9

Q: For CQSKYYIMRACCFMATLWYW, which amyloid nucleation score is on record?
A: -0.475 ± 0.47

Q: Which amyloid nucleation score does the source give for LRVAFIKLKHKKFNDMYRSM here?
A: 0.156 ± 0.26

Q: With ITREVSL as the substance, how does the amyloid nucleation score read?
A: 1.36 ± 0.61

Q: With YWNKITRFFCMLESNVTLHT as the substance, how does the amyloid nucleation score read?
A: 0.207 ± 1.4

Q: With DCIACRECSMTSKLLGGLGT as the substance, how does the amyloid nucleation score read?
A: 0.859 ± 0.39

Q: With GGLGVDATGYHVSTEGEELE as the substance, how does the amyloid nucleation score read?
A: -0.275 ± 0.43

Q: For GMFNLLH, which amyloid nucleation score is on record?
A: inactive

Q: Which amyloid nucleation score does the source give for MRLSQRWPNSKVCDLRHSRP here?
A: 0.632 ± 0.45

Q: For SVNHCHCL, which amyloid nucleation score is on record?
A: 0.597 ± 0.3

Q: Which amyloid nucleation score does the source give for MRNKKRPSRLVIGRLGNGFS here?
A: -0.079 ± 0.84

Q: Which amyloid nucleation score does the source give for FGIIGEERNLRAAPMAGGRP here?
A: -0.455 ± 1.2

Q: Which amyloid nucleation score does the source give for LKWRV here?
A: -0.771 ± 1.1

Q: With LAWVGVLW as the substance, how does the amyloid nucleation score read?
A: -0.219 ± 1.1

Q: Which amyloid nucleation score does the source give for DPTTPYDISGIWLRLEVRAD here?
A: -0.175 ± 0.46

Q: With GDSLTLTLFRIIYIGFRTDY as the substance, how does the amyloid nucleation score read?
A: -1.03 ± 0.44

Q: Which amyloid nucleation score does the source give for FCRDVSVYLDYLDGPRSGWS here?
A: -0.245 ± 0.35

Q: For LVWISVL, which amyloid nucleation score is on record?
A: 0.163 ± 0.32

Q: For VWIPYCLNFQSCNNHKLSLA, which amyloid nucleation score is on record?
A: -1.13 ± 1

Q: Which amyloid nucleation score does the source give for ANLACACCCYP here?
A: -0.146 ± 0.96

Q: With PIDGLPGASFGLGFQCGVGM as the substance, how does the amyloid nucleation score read?
A: 0.527 ± 0.76

Q: With DRTTNVEYWLGAEMLSSRTV as the substance, how does the amyloid nucleation score read?
A: -0.469 ± 0.78

Q: Which amyloid nucleation score does the source give for ANTNAFKHLNYILMVLVLQG here?
A: inactive

Q: Which amyloid nucleation score does the source give for LDSAYSGGKCYTWFNIRRFV here?
A: 0.361 ± 0.86

Q: With MQINGRESDCMWNNMNARDW as the substance, how does the amyloid nucleation score read?
A: -0.108 ± 0.27

Q: Which amyloid nucleation score does the source give for WFVGGTWQGAMNKGPTFVN here?
A: 0.078 ± 0.56

Q: For TEINIASPYWNNSRSGSDMD, which amyloid nucleation score is on record?
A: 0.238 ± 0.42

Q: With LRGVLMFMQVRDRADRGRSW as the substance, how does the amyloid nucleation score read?
A: 0.061 ± 0.47

Q: For FLKKGERTIF, which amyloid nucleation score is on record?
A: -0.446 ± 1

Q: Which amyloid nucleation score does the source give for YYIMYYAGSFIRGEMVHRLT here?
A: -0.581 ± 0.32

Q: With MISDFSNVIMLVCIPCFLYV as the substance, how does the amyloid nucleation score read?
A: 5.13 ± 0.067

Q: Which amyloid nucleation score does the source give for YGILSLRICSLENSLSA here?
A: -1.34 ± 1

Q: For MSAVTGYECFRSLLV, which amyloid nucleation score is on record?
A: -0.055 ± 0.35

Q: Which amyloid nucleation score does the source give for TASIWNSRFFHNAGSLSGPF here?
A: -0.3 ± 1.1

Q: With KLAYKRSQMLTVVPRCSQGT as the substance, how does the amyloid nucleation score read?
A: -0.39 ± 0.53

Q: Which amyloid nucleation score does the source give for GNNGVEKPKNHISGELFGTN here?
A: -0.138 ± 0.35

Q: For NFVICNVMDRISWLCVCNLH, which amyloid nucleation score is on record?
A: 4.08 ± 0.076

Q: With AFHLTSSSLFLFSWNSWVAV as the substance, how does the amyloid nucleation score read?
A: 5.3 ± 0.082

Q: Which amyloid nucleation score does the source give for FTDTICCIVMQFKPKRSGSS here?
A: 4.87 ± 0.088

Q: Which amyloid nucleation score does the source give for IDGCLPTNRVGSSRSVRGNV here?
A: inactive

Q: With YAYEIGFVILQFFNNRVFAL as the substance, how does the amyloid nucleation score read?
A: inactive

Q: For SWFYDGCSRPWRGIGDRRVC, which amyloid nucleation score is on record?
A: -0.812 ± 0.91

Q: Which amyloid nucleation score does the source give for GSNIVSEYERLGRIMSV here?
A: -0.509 ± 1.2

Q: With SKIESHFWLVFNIRGSYNKA as the substance, how does the amyloid nucleation score read?
A: 7.298 ± 0.046

Q: With RGGKGPRFVYNRFISRAAGR as the substance, how does the amyloid nucleation score read?
A: -0.869 ± 0.74

Q: Which amyloid nucleation score does the source give for MKYKSWTSGSGSSVSRRMKL here?
A: 0.028 ± 0.72

Q: Which amyloid nucleation score does the source give for LLRSILTMAY here?
A: 0.605 ± 0.43

Q: Which amyloid nucleation score does the source give for AVFWSNYCSMSCMSKTKKKS here?
A: 0.159 ± 0.51

Q: For SLQFLSKPHLLRESVSESVD, which amyloid nucleation score is on record?
A: 0.381 ± 0.35

Q: For TCLKFDSPMNCKGLSSLDMM, which amyloid nucleation score is on record?
A: -0.496 ± 0.38

Q: Which amyloid nucleation score does the source give for GRLCCRPVWYTISCKLWVNE here?
A: 1.04 ± 0.49

Q: With SHNEG as the substance, how does the amyloid nucleation score read?
A: 1.34 ± 0.41

Q: For DEDERWCLDIVG, which amyloid nucleation score is on record?
A: -0.076 ± 0.37

Q: Which amyloid nucleation score does the source give for TGRSTSTG here?
A: inactive

Q: For FSYYVKGDGKERVGWMASIM, which amyloid nucleation score is on record?
A: -0.94 ± 0.94

Q: For VAASFCYIYRRYPSLFLGSR, which amyloid nucleation score is on record?
A: 0.422 ± 0.53

Q: With GNTVQLGRAGRFHVYDLRGV as the substance, how does the amyloid nucleation score read?
A: -0.357 ± 0.6

Q: For NNKDISYGREAGGYEVERKD, which amyloid nucleation score is on record?
A: -0.907 ± 1.2

Q: With VMRVFILSMFWIVSECNRSY as the substance, how does the amyloid nucleation score read?
A: 2.38 ± 0.23

Q: Which amyloid nucleation score does the source give for DLVCDFYVGLV here?
A: 2.42 ± 0.085

Reference: the supplement of paper PMC12042874
